Laboratory results taken from PMC7866087, “Evaluation of Computationally Designed Peptides against TWEAK, a Cytokine of the Tumour Necrosis Factor Ligand Family” (International Journal of Molecular Sciences, 2021).

Tested on: TWEAK-Fn14 signalling pathway, BRV5 cells
Assay: Cell-based screening of individual peptides, gene expression microarray in TWEAK-stimulated BRV5 cells
Set-up: species or system human
Conditions: for BIRC2 expression Z-Score / HSP90B1 expression Z-Score / IL6 expression Z-Score / JUN expression Z-Score / MAP4K4 expression Z-Score / MAPK14 expression Z-Score / NFKB2 expression Z-Score / TNFRSF12A expression Z-Score / TRAF2 expression Z-Score: normalized to NARS2
How it was run: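 Serum-starved BRV5 cells were treated with individual peptides at 450 µM, given once or re-dosed hourly, every two hours or every three hours, with or without TWEAK at 25 ng/mL. RNA was harvested after 6 h, and expression of TWEAK-Fn14 downstream genes plus two housekeeping genes was quantified by Fluidigm EvaGreen qPCR as Ct and delta Ct values.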

[1] = TWEAK control T, BRV5, 6 h, replicate column 3
[2] = TWEAK control T, BRV5, 6 h, replicate column 4
[3] = individual peptides, BRV5 + TWEAK, 450 µM, 6 h, mean of replicate columns
[4] = individual peptides, BRV5 + TWEAK, 450 µM, 6 h, replicate column 1
[5] = individual peptides, BRV5 + TWEAK, 450 µM, 6 h, replicate column 2
[6] = individual peptides, BRV5 + TWEAK, 6 h
[7] = individual peptides, BRV5 + TWEAK, 6 h, listed as T

B1: tumour necrosis factor-like weak inducer of apoptosis (protein, UniProt O43508 94-249, looked up)
Tumor necrosis factor ligand …: SAPKGRKTRARRAIAAHYEVHPRPGQDGAQAGVDGTVSGWEEARINSSSPLRYNRQIGEFIVTRAGLYYLYCQVHFDEGKAVYLKLDLLVDGVLALRCLEEFSATAASSLGPQLRLCQVSGLLALRPGSSLRIRTLPWAHLKAAPFLTYFGLFQVH
For B1, the “BIRC2 mRNA expression (normalized to NARS2)” value [1] was 1.027, the “HSP90B1 mRNA expression (normalized to NARS2)” value [1] was 3.037 and the “JUN mRNA expression (normalized to NARS2)” value [1] was 0.03535. For the same molecule, the “MAP4K4 mRNA expression (normalized to NARS2)” value [1] was 0.2587, the “MAPK14 mRNA expression (normalized to NARS2)” value [1] was 0.3748 and the “NFKB2 mRNA expression (normalized to NARS2)” value [1] was 0.06251. The “TNFRSF12A mRNA expression (normalized to NARS2)” value [1] was 0.03969, the “TRAF2 mRNA expression (normalized to NARS2)” value [1] was 0.07995 and the “BIRC2 mRNA expression (normalized to NARS2)” value [2] was 1.011. The “HSP90B1 mRNA expression (normalized to NARS2)” value [2] was 2.84, the “JUN mRNA expression (normalized to NARS2)” value [2] was 0.03216 and the “MAP4K4 mRNA expression (normalized to NARS2)” value [2] was 0.2342. The “MAPK14 mRNA expression (normalized to NARS2)” value [2] was 0.332, the “NFKB2 mRNA expression (normalized to NARS2)” value [2] was 0.06133 and the “TNFRSF12A mRNA expression (normalized to NARS2)” value [2] was 0.03763. The “TRAF2 mRNA expression (normalized to NARS2)” value [2] was 0.08704, the “BIRC2 mRNA expression (normalized to NARS2)” value [3] was 0.9889 and the “HSP90B1 mRNA expression (normalized to NARS2)” value [3] was 2.734. The “IL6 mRNA expression (normalized to NARS2)” value [3] was 0.00008785, the “JUN mRNA expression (normalized to NARS2)” value [3] was 0.02837 and the “MAP4K4 mRNA expression (normalized to NARS2)” value [3] was 0.2098. For the same molecule, the “MAPK14 mRNA expression (normalized to NARS2)” value [3] was 0.3339, the “NFKB2 mRNA expression (normalized to NARS2)” value [3] was 0.05526 and the “TNFRSF12A mRNA expression (normalized to NARS2)” value [3] was 0.03637. For the same molecule, the “TRAF2 mRNA expression (normalized to NARS2)” value [3] was 0.06681, the “BIRC2 mRNA expression (normalized to NARS2)” value [4] was 0.9782 and the “HSP90B1 mRNA expression (normalized to NARS2)” value [4] was 2.649. For the same molecule, the “IL6 mRNA expression (normalized to NARS2)” value [4] was 0.0001501, the “JUN mRNA expression (normalized to NARS2)” value [4] was 0.02253 and the “MAP4K4 mRNA expression (normalized to NARS2)” value [4] was 0.1844. For the same molecule, the “MAPK14 mRNA expression (normalized to NARS2)” value [4] was 0.3328, the “NFKB2 mRNA expression (normalized to NARS2)” value [4] was 0.05313 and the “TNFRSF12A mRNA expression (normalized to NARS2)” value [4] was 0.03435. For the same molecule, the “TRAF2 mRNA expression (normalized to NARS2)” value [4] was 0.05236, the “BIRC2 mRNA expression (normalized to NARS2)” value [5] was 0.9396 and the “HSP90B1 mRNA expression (normalized to NARS2)” value [5] was 2.412. For the same molecule, the “IL6 mRNA expression (normalized to NARS2)” value [5] was 0.00002557, the “JUN mRNA expression (normalized to NARS2)” value [5] was 0.02345 and the “MAP4K4 mRNA expression (normalized to NARS2)” value [5] was 0.162. For the same molecule, the “MAPK14 mRNA expression (normalized to NARS2)” value [5] was 0.2958, the “NFKB2 mRNA expression (normalized to NARS2)” value [5] was 0.04407 and the “TNFRSF12A mRNA expression (normalized to NARS2)” value [5] was 0.03379. For the same molecule, the “TRAF2 mRNA expression (normalized to NARS2)” value [5] was 0.04788, the “BIRC2 expression Z-Score” value [6] was 2.98 and the “HSP90B1 expression Z-Score” value [6] was 0.8798. The “IL6 expression Z-Score” value [6] was -1.558, the “JUN expression Z-Score” value [6] was -0.7938 and the “MAP4K4 expression Z-Score” value [6] was 0.6195. The “MAPK14 expression Z-Score” value [6] was 2.332, the “NFKB2 expression Z-Score” value [6] was 1.408 and the “TNFRSF12A expression Z-Score” value [6] was 1.8. For the same molecule, the “TRAF2 expression Z-Score” value [6] was 2.292, the “BIRC2 expression Z-Score” value [7] was 2.9803 and the “HSP90B1 expression Z-Score” value [7] was 0.8798. For the same molecule, the “IL6 expression Z-Score” value [7] was -1.5585, the “JUN expression Z-Score” value [7] was -0.7938 and the “MAP4K4 expression Z-Score” value [7] was 0.6195. For the same molecule, the “MAPK14 expression Z-Score” value [7] was 2.3319, the “NFKB2 expression Z-Score” value [7] was 1.4080 and the “TNFRSF12A expression Z-Score” value [7] was 1.8000. For the same molecule, the “TRAF2 expression Z-Score” value [7] was 2.2919.
